By Kd is commonly meant a measure of binding affinity in units of concentration. Read a high Kd as weaker binding.

The target in this test is Rab7-RILP complex (human, UniProt P51149 2-195; Q96NA2 242-320). As to the kind of experiment: ITC. For orientation: ITC needs no label: the signal is the heat of the interaction.
Chain of Rab7-RILP complex (P51149 2-195 Q67L, chain 1 of 2): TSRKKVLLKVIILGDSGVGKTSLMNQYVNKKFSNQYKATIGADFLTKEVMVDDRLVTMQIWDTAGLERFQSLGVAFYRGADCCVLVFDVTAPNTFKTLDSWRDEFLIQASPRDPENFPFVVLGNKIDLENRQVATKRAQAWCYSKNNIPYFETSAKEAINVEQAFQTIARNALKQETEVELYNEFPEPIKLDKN
Chain of Rab7-RILP complex (Q96NA2 242-320, chain 2 of 2): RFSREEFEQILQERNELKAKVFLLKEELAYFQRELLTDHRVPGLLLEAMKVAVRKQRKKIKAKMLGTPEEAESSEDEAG

B1: ORP1 ANK (5-233) (protein)
chain: AEQQLLHHARNGNAEEVRQLLETMARNEVIADINCKGRSKSNLGWTPLHLACYFGHRQVVQDLLKAGAEVNVLNDMGDTPLHRAAFTGRKELVMLLLEYNADTTIVNGSGQTAKEVTHAEEIRSMLEAVERTQQRKLEELLLAAAREGKTTELTALLNRPNPPDVNCSDQLGNTPLHCAAYRAHKQCALKLLRSGADPNLKNKNDQKPLDLAQGAEMKHILVGNKVIYK
Turning to B1, the Kd was determined as 4.13 µM.

The values are drawn from paper PMC6363164 (2019).
